B1: collagen III: collagen III (Human placenta, Sigma), dermal ECM protein (protein, UniProt P02461 154-1221, looked up)
Collagen alpha-1(III) chain: QYDSYDVKSGVAVGGLAGYPGPAGPPGPPGPPGTSGHPGSPGSPGYQGPPGEPGQAGPSGPPGPPGAIGPSGPAGKDGESGRPGRPGERGLPGPPGIKGPAGIPGFPGMKGHRGFDGRNGEKGETGAPGLKGENGLPGENGAPGPMGPRGAPGERGRPGLPGAAGARGNDGARGSDGQPGPPGPPGTAGFPGSPGAKGEVGPAGSPGSNGAPGQRGEPGPQGHAGAQGPPGPPGINGSPGGKGEMGPAGIPGAPGLMGARGPPGPAGANGAPGLRGGAGEPGKNGAKGEPGPRGERGEAGIPGVPGAKGEDGKDGSPGEPGANGLPGAAGERGAPGFRGPAGPNGIPGEKGPAGERGAPGPAGPRGAAGEPGRDGVPGGPGMRGMPGSPGGPGSDGKPGPPGSQGESGRPGPPGPSGPRGQPGVMGFPGPKGNDGAPGKNGERGGPGGPGPQGPPGKNGETGPQGPPGPTGPGGDKGDTGPPGPQGLQGLPGTGGPPGENGKPGEPGPKGDAGAPGAPGGKGDAGAPGERGPPGLAGAPGLRGGAGPPGPEGGKGAAGPPGPPGAAGTPGLQGMPGERGGLGSPGPKGDKGEPGGPGADGVPGKDGPRGPTGPIGPPGPAGQPGDKGEGGAPGLPGIAGPRGSPGERGETGPPGPAGFPGAPGQNGEPGGKGERGAPGEKGEGGPPGVAGPPGGSGPAGPPGPQGVKGERGSPGGPGAAGFPGARGLPGPPGSNGNPGPPGPSGSPGKDGPPGPAGNTGAPGSPGVSGPKGDAGQPGEKGSPGAQGPPGAPGPLGIAGITGARGLAGPPGMPGPRGSPGPQGVKGESGKPGANGLSGERGPPGPQGLPGLAGTAGEPGRDGNPGSDGLPGRDGSPGGKGDRGENGSPGAPGAPGHPGPPGPVGPAGKSGDRGESGPAGPAGAPGPAGSRGAPGPQGPRGDKGETGERGAAGIKGHRGFPGNPGAPGSPGPAGQQGAIGSPGPAGPRGPVGPSGPPGKDGTSGHPGPIGPPGPRGNRGERGSEGSPGHPGQPGPPGPPGAPGPCCGGVGAAAIAGIGGEKAGGFAPYYG

What was measured:
Type in all cases: cell-based, mice
splenic cNK cells [1] = experiment: LEGENDplex chemokine release by splenic NK cells co-cultured with m157-MEF on ECM proteins; conditions: for CCL5 release by splenic cNK cells / CXCL10 release by splenic cNK cells: 12 hours
Protocol: NK cells purified from spleens under sterile conditions were used for LEGENDplex experiments. Spleens from 8-9-week-old C57BL/6 female WT mice were harvested and mashed through a 70 μm filter. Cells were resuspended in RBC lysis for two minutes and washed with 1×PBS/2% FCS/5 mM EDTA. NK cells were enriched by negative selection using an NK cell isolation kit (Milteny Biotec, catalog no. 130-115-818) and magnetic LS columns (Milteny Biotec, catalog no. 130-042-401) according to the manufacturer's instructions. Enrichment of isolated NK cells was confirmed by flow cytometry and was 88-90% CD3^−NK1.1^+NKp46^+ cells. Enriched NK cells were resuspended in RPMI 1640 media supplemented with 10% FBS and 1% P/S.
ECM protein coating on wells was performed as previously described. 1×10^5 enriched splenic NK cells was mixed with 20 μg of respective ECM protein per well in RPMI 1640/10% FBS/1% P/S/20 mM Glutamine and incubated at RT for 10 minutes. NK cells and ECM mix were plated onto the ECM-coated well and were incubated at 37° C./5% CO2 for 2 hours. At the end of the incubation, 1×10^5 MEF (WT or m157) cells were added to the respective wells to obtain a 1:1 NK:MEF ratio. NK cells and MEF were co-cultured at 37° C. 5% CO2 for 24 hours supplemented with mIL-12 (10 ng/mL, Biolegend, catalog no. 577002) and mIL-15 (1 ng/ml, Shenandoah Biotechnology, catalog no. 200-07-100 μg). The supernatant was collected at 12- and 24-hour intervals, centrifuged to remove cells/cell debris and subsequently frozen at −80° C. until further use. Quantification of murine cytokines and chemokines (CCL2, CCL5, CXCL9, CXCL10) in supernatants was performed with LEGENDplex kits (Biolegend, catalog nos. 740451, 740622) according to manufacturer's instructions. In brief, a mix of capture beads with distinct size and fluorescence was incubated with undiluted S/N or standard dilutions for 2 hours at RT with constant shaking. Beads were washed, a biotinylated detection antibody was added and the plate was incubated for 1 hour at RT with constant shaking. The streptavidin-PE conjugate was added and further incubated for 30 minutes at RT on a shaker. Beads were washed and subsequently acquired on a BD LSRFortessa X-20 flow cytometer. Analysis and quantification of the results were done using LEGENDplex data analysis software (BioLegend). Quantification was reported as pg/ml for CCL2, CCL5, CXCL10 and as MFI for CXCL9.

splenic cNK cells [2] = experiment: Phospho-signaling in splenic cNK cells stimulated with H2O2 in the presence of ECM proteins; conditions: baseline and 2- and 5-minute exposure to H2O2
Protocol: (§1) Single-cell suspensions from all samples were prepared by straining through a 70 μm filter. 2.4G2 supernatant treated cells were stained in 1×PBS/2% FCS/5 mM EDTA with the appropriate surface antibodies (Table 2) for 30 minutes at 4° C., washed and analyzed by flow cytometry. For intracellular staining, cells were fixed and permeabilized using True-Nuclear Transcription Buffer set (Biolegend, catalog no. 424401) according to the manufacturer's protocol then incubated with appropriate antibodies (Table 2) for 60 min at RT, washed and analyzed by flow cytometry. For in vitro signaling experiments, following the specified time points, cells were fixed with an equal volume of pre-warmed 1×aldehyde based fixation buffer (Biolegend, catalog no. 420801) for 20 min at RT. Fixed cells were permeabilized by drop-wise addition of chilled methanol-based solution True-Phos Perm Buffer (Biolegend, catalog no. 425401) while mixed on a vortex. Cells were stored in-20° C. and dark for 1-3 days before washing them two times with ˜3 mL of 1×PBS/2% FCS/5 mM EDTA. Cells were subsequently stained with appropriate antibodies against surface markers and specific phosphorylated signaling proteins (Table 2) for 60 min at RT, washed and analyzed by flow cytometry. Cells were assayed on a BD LSRFortessa X-20 flow cytometer (BD Bioscience, Billerica, MA, USA) and data were analyzed using FlowJo software Version 10 (Tree Star, Ashlad, OR, USA). NK cells in WT non-reporting mice were identified as CD3^− NK1.1^+NKp46^+.
(§2) For in vitro experiments in the presence of ECM components, Collagen I (Rat tail, Sigma, catalog no. 08-115), collagen III (Human placenta, Sigma, catalog no. C4407), collagen IV (Mouse, Sigma, catalog no. C0543), Elastin (Mouse lung, Sigma, catalog no. E6402), Laminin (Mouse, Thermo Fisher, catalog no. 23017015) and Fibronectin (Rat plasma, Sigma, catalog no. F0635) were diluted in 1×PBS and coated at 20 μ ENREF 45 g/cm^2 in a 24 well tissue culture plate for 30 minutes at RT with gentle shaking followed by overnight at 4° C. Spleens from Ncr1^iCre, ROSA^mT-mG, WT or Lair1^−/− mice were harvested as described above. Then, 5×10^6 splenocytes resuspended in RPMI 10% FBS/1% P/S/20 mM Glutamine were mixed with 20 μg of respective ECM protein per well and were incubated at RT for 10 minutes. Splenocytes and ECM mix were plated onto the ECM-coated well and were incubated at 37° C./5% CO2 for 2 hours (short ECM exposure) or 17 hours (long ECM exposure). At the end of the incubation, 1×10^5 MEF (WT or m157) cells were added to each well to obtain a 50:1 splenocyte:MEF ratio. For cell signaling experiments, hydrogen peroxide (H2O2) at a final concentration of 2.5 mM or 1×10^5 MEF-m157 cells were added to each well except in “0 min” wells which were unstimulated and fixed immediately. Splenocytes were stimulated with 2.5 mM H2O2 for 2 min and 5 min or were co-cultured with MEF-m157 for 30 min and 60 min (signaling) or 7 hours (CD107a and IFN[…]) at 37° C./5% CO2. Splenocytes and MEF in co-culture were supplemented with mIL-12 (10 ng/mL, Biolegend, catalog no. 577002), mIL-15 (1 ng/mL, Shenandoah Biotechnology, catalog no. 200-07) and hIL-2 (Biolegend, catalog no. 589104; only long ECM exposure) as well as for CD107a/IFN experiments. 1 μL of anti-CD107a-BV421 (1D4B, Biolegend, catalog no. 121618), 1×Brefeldin A (Biolegend, catalog no. 420601) and 1×Monensin (Biolegend, catalog no. 420701) were added. Following the co-culture, cells were washed with 1×PBS/2% FCS/5 mM EDTA and the pellet was resuspended in 2.4G2 blocking solution before flow cytometry staining.

[3] = tested on: Ly49H^+ splenic cNK cells; experiment: Splenic cNK cell co-culture with m157-MEF in the presence of ECM proteins (CD107a, IFNγ flow cytometry); conditions: for Ly49H+ cNK cell degranulation (CD107a): 9 and 24 hours co-culture with m157-MEF, ECM coated 20 μg/cm2
Protocol: as §1, §2

splenic cNK cells [4] = experiment: Phospho-signaling in splenic cNK cells co-cultured with m157-MEF in the presence of ECM proteins
Protocol: as §1, with “Cells were stored in-20° C. and dark for 1-3 days before washing them two times with ˜3 mL of 1×PBS/2% FCS/5 mM EDTA.” left out, “NK cells in WT non-reporting mice were identified as CD3^− NK1.1^+NKp46^+.” left out

Row | Molecule | CCL5 release by splenic cNK cells (splenic cNK cells [1]) | CXCL10 release by splenic cNK cells (splenic cNK cells [1]) | CCL2 release by splenic cNK cells (splenic cNK cells [1]; 24 hours) | pNFκB in NK cells (splenic cNK cells [2]) | pSTAT3 in NK cells (splenic cNK cells [2]) | Ly49H+ cNK cell degranulation (CD107a) [3] | IFNγ production by Ly49H+ cNK cells ([3]; exposed to m157-MEF, 9 and 24 hours) | phospho-NFκB (p65) in splenic cNK cells (splenic cNK cells [4]; after 30- and 60-minutes exposure to m157-MEF) | phospho-NFκB (p65) in splenic cNK cells (splenic cNK cells [4]; at baseline) | CXCL9 release by cNK cells (splenic cNK cells [1]; 24 hours)
1 | collagen I: Collagen I (Rat tail, Sigma), dermal ECM protein | suppressed | significantly induced | significantly induced | suppressive effect | suppressive effect | potently blocked | suppressed |  |  | 
2 | B1 | suppressed | significantly induced | significantly induced | increased |  | potently blocked |  | highly amplified | significantly induced | induced

Source: patent publication US20240287194A1, “Targeting Extracellular Matrix Proteins to Regulate NK Cell Function in Peripheral Tissues” (The General Hospital Corporation, priority 2021, published 2024)
